We go through one substance from US20230136228A1.

The target of experiment [1] is human CEACAM1 (human) (UniProt P13688). In words: flow cytometry, MFI on transfected PEAK cells divided by MFI on WT PEAK cells. A general note: In flow cytometry, cells or beads pass a laser one at a time.
The target of experiment [2] is human CEACAM3 (human) (UniProt P40198). The description is as above.
Experiment [3] has as its target human CEACAM6 (human) (UniProt P40199). The experiment is described as above.
Experiment [4] deals with human CEACAM4 (human) (UniProt O75871). The description is as above.
Experiment [5] concerns the target human CEACAM8 (human) (UniProt P31997). Described as above.
Experiment [6] addresses human CEACAM5 (carcinoembryonic antigen, CEA), cell surface (human) (UniProt P06731). The description is as above.
Experiment [7] has as its target human CEACAM1 (human) (UniProt P13688). As to the kind of experiment: flow cytometry, transfected PEAK cells, equimolar to 10 mcg/ml full-size antibody.
Experiment [8] deals with human CEACAM3 (human) (UniProt P40198). The experiment is described as above.
The target in experiment [9] is human CEACAM6 (human) (UniProt P40199). Described as above.
Experiment [10] concerns the target human CEACAM4 (human) (UniProt O75871). The experiment is described as above.
Experiment [11] addresses human CEACAM8 (human) (UniProt P31997). The experiment is described as above.
The target of experiment [12] is human CEACAM5 (carcinoembryonic antigen, CEA), cell surface (human) (UniProt P06731). The description is as above.
Sequence of human CEACAM5 (carcinoembryonic antigen, CEA), cell surface (human) (P06731 35-685 limits assumed): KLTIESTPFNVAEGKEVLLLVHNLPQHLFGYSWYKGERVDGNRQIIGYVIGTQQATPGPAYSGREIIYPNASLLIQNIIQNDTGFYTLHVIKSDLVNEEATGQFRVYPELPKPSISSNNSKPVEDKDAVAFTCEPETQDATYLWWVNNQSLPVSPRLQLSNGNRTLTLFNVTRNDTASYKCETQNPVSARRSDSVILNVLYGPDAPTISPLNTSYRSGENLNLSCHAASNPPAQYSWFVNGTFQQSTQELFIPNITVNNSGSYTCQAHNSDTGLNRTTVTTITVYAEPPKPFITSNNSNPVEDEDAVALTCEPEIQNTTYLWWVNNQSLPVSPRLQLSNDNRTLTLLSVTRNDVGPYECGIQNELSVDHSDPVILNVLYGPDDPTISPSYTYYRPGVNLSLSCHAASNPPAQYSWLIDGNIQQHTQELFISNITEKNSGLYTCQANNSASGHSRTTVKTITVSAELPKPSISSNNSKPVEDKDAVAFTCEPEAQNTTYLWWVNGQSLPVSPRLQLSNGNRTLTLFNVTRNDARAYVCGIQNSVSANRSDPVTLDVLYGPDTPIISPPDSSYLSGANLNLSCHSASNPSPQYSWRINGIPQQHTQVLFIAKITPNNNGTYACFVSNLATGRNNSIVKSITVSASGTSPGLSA

Sequence of human CEACAM1 (human) (P13688 35-526): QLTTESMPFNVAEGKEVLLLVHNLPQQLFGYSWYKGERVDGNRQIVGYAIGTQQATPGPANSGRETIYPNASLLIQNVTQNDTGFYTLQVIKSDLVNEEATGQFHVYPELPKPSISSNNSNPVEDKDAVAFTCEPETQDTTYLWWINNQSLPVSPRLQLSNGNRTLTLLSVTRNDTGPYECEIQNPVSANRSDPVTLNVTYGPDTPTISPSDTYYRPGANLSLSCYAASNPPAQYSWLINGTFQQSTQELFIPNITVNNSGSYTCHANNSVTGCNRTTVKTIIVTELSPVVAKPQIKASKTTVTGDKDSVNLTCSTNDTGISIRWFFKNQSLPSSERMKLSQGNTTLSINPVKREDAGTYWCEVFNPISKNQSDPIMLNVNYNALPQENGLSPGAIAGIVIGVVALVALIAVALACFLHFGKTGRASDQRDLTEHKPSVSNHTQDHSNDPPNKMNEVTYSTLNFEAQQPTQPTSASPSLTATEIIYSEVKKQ
Sequence of human CEACAM3 (human) (P40198 35-252): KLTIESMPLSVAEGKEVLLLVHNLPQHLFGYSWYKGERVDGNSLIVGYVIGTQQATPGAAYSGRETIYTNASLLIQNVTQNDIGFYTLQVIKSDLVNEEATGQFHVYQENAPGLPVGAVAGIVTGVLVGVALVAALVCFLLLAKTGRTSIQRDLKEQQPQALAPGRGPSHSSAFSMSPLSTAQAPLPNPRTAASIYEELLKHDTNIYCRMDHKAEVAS
Sequence of human CEACAM4 (human) (O75871 36-244): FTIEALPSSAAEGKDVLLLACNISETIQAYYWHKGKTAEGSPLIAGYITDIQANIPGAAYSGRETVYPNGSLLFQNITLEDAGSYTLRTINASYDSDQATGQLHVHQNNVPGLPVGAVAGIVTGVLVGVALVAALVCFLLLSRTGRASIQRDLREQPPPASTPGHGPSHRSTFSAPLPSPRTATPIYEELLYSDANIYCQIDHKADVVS
Sequence of human CEACAM6 (human) (P40199 35-320): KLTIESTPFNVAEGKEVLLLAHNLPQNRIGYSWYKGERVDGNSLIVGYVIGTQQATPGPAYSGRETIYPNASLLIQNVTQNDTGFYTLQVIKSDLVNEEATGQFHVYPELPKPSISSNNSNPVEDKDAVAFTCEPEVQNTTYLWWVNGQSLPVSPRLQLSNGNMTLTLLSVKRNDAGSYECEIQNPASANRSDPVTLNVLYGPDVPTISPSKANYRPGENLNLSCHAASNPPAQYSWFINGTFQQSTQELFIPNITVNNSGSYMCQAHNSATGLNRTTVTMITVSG
Sequence of human CEACAM8 (human) (P31997 35-320): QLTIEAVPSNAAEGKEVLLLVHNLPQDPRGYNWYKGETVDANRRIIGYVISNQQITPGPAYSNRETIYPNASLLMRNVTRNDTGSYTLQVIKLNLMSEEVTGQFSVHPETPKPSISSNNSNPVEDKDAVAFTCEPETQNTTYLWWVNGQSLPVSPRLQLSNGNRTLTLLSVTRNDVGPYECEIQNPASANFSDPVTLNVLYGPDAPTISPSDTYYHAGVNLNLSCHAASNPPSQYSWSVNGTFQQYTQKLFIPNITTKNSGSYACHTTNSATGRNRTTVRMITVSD

In the case of MEDI-565 BiTE (bispecific antibody), the Factor to PEAK WT in experiment [1] came to 1.2 fold; in [2], 0.8 fold; in [3], 1.6 fold; in [4], 1.1 fold; in [5], 20.4 fold; in experiment [6], 15.7 fold. The MFI worked out at 1470 MFI in experiment [7]; 943 MFI in experiment [8]; 1830 MFI in experiment [9]; 1340 MFI in experiment [10]; 24000 MFI in [11]; 18400 MFI in [12].
